Three molecules from article PMC5476825, “Towards repurposing the yeast peroxisome for compartmentalizing heterologous metabolic pathways” (Nature Communications, 2016) can be followed below.

Primed or numbered codes have the meaning given here. Ends that are not written are not given here. 5FAM′ = 5-carboxyfluorescein

A word on the Kd: it is the concentration at which binding is half-saturated.

Experiment [1] has as its target T1, His6-Pex5c, C-terminal fragment (residues 295-612) of S. cerevisiae PEX5 (S. cerevisiae, UniProt P35056 295-612).
T1 construct: Pex5p (PEX5), PTS1 import receptor, S. cerevisiae, C-terminal fragment residues 295-612; Plasmid was a gift of Brooke M. Gardner; also called Pex5p C-terminal fragment; C-terminal truncation of Pex5p; not shown: His6, N-terminal, kept
T1 sequence (looked up): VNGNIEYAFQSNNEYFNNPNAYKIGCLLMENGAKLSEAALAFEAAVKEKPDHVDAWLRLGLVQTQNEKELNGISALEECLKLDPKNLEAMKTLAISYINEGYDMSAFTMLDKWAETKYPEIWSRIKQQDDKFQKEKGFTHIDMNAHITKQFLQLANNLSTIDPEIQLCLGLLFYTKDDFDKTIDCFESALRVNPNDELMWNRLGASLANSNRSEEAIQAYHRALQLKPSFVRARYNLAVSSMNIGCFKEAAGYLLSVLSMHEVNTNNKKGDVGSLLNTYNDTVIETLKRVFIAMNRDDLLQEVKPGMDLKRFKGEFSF
As to the kind of experiment: fluorescence polarisation; competition: 375 nM Pex5c and 20 nM 5FAM-…, unlabelled … (4 mM to 3.8 nM) or … (0.5 mM to 0.47 nM) added; 50 mM HEPES pH 7.4, 100 mM NaCl, 0.05% Tween-20; equilibrated 16 h at 4 °C; fit with equation 17 of Roehrl et al. The note with it: both partners purified.

The target in experiment [2] is T1, His6-Pex5c, C-terminal fragment …. Nature of the experiment: fluorescence polarisation; direct titration: His6-Pex5C from 6.5 uM downward in twofold increments against 20 nM 5FAM-…; 50 mM HEPES pH 7.4, 100 mM NaCl, 0.05% Tween-20; equilibrated 16 h at 4 °C; anisotropy converted to fraction bound. Conditions: both partners purified.

B1: ePTS1 peptide (LGRGRRSKL) (peptide)
peptide: LGRGRRSKL
notes: ePTS1: linker LGRGRR selected from a randomized six-residue linker library, followed by the canonical PTS1 SKL; also called enhanced PTS1; source: synthetic peptide, bought: Elim Biopharmaceuticals Inc
On to B1, for which the dissociation constant (Kd) in experiment [1] came out at 800 ± 100 nM.

B2: PTS1 peptide (DELYKGSKL) (peptide)
peptide: DELYKGSKL
notes: peptide that results from fusion of the canonical PTS1 (SKL) to the C-terminus of YFP; source: synthetic peptide, bought: Elim Biopharmaceuticals Inc
Take B2: the Kd in experiment [1] was 176000 ± 17300 nM.

B3: 5-Carboxyfluorescein-LGRGRRSKL (peptide)
peptide: {5FAM′}-LGRGRRSKL
notes: ePTS1: linker LGRGRR selected from a randomized six-residue linker library, followed by the canonical PTS1 SKL; also called fluorescein-tagged ePTS1 peptide; source: synthetic peptide, bought: Elim Biopharmaceuticals Inc
Take B3: the Kd in experiment [2] amounted to 355 ± 6.38 nM.
